Entries after “also recorded” stand apart in the source; their conditions may differ.
Tested on: aminoglycoside phosphorylase (KanR)
Type: cell-based, S. cerevisiae

B1: intein(N)-ER-intein(C): starting RecA intein with the estrogen receptor ligand binding domain in place of the endonuclease domain, SEQ ID NO: 1 (protein)
chain: CLAEGTRIFDPVTGTTHRIEDVVDGRKPIHVVAAAKDGTLHARPVVSWFDQGTRDVIGLRIAGGAIVWATPDHKVLTEYGWRAAGELRKGDRVAGPGGSGNSLALSLTADQMVSALLDAEPPILYSEYDPTRPFSEASMMGLLTNLADRELVHMINWAKRVPGFVDLTLHDQVHLLECAWLEILMIGLVWRSMEHPGKLLFAPNLLLDRNQGKCVEGMVEIFDMLLATSSRFRMMNLQGEEFVCLKSIILLNSGVYTFLSSTLKSLEEKDHIHRVLDKITDTLIHLMAKAGLTLQQQHQRLAQLLLILSHIRHMSNKRMEHLYSMKCKNVVPLYDLLLEMLDAHRLHAGGSGASRVQAFADALDDKFLHDMLAEELRYSVIREVLPTRRARTFDLEVEELHTLVAEGVVVHN
modifications: M. tuberculosis RecA intein with the estrogen ligand binding domain inserted in place of the RecA endonuclease domain with six amino acid linkers in between.
B1 was tested, and the “geneticin resistance (growth) in the KanR context” value was “confers no geneticin resistance in the presence or absence of 4-HT; also recorded: unable to grown; also recorded: fails to confer geneticin resistance”.
